From article PMC10624354

Target: T1, PIF4 (Arabidopsis thaliana, UniProt Q8W2F3 1-430)
T1 sequence: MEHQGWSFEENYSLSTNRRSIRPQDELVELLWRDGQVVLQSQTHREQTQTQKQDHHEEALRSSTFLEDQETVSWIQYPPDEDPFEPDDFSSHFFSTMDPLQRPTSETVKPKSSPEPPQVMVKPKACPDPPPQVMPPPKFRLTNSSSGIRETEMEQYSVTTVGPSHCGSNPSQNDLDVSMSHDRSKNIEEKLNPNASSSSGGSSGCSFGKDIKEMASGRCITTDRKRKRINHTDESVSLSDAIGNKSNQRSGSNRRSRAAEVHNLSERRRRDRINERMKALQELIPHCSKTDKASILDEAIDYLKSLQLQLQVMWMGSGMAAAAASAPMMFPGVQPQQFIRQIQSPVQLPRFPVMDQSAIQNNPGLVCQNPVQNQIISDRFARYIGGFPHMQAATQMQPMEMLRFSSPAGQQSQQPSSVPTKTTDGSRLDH
Assay: EMSA

B1: YUC8pro (WT) (dsDNA)
DNA 1: TCTTTTTCTTCCCCACGTGGCTTCCTCTCGTTGGTCCCACAA
DNA 2: TTGTGGGACCAACGAGAGGAAGCCACGTGGGGAAGAAAAAGA
- binding result: binds
